The results in this text go back to publication doi:10.1101/2022.06.09.495492.

The assay addresses α-actin, endogenous (T. vaginalis) (T. vaginalis (endogenous in TH17 trophozoites)). The experiment in a line: co-sedimentation.

Take “TvFACPα (F-actin capping protein subunit α homolog), endogenous (natural protein)”: the percent co-sedimented with F-actin (F-actin fraction) worked out at 25%.
